In patent US20260226168A1 one finds MFI data, which are given here for four molecules.

B1: mu-131 (antibody, V domains shown)
VH: EVQLQQSGPELVKPGASVKMSCKASGYTFTNYVMHWVKQKPGQGLEWIGYFNPYNDGTNYNEKFKGKATLTSDKSSNTAYMELSSLTSEDSAVYYCARGGVRRYFDVWGAGTTVTVSS
VL: DIQMTQSPSSLSASLGERVSLTCRASQDIGSNLNWLQLGPDGTIKRLIYATFSLDSGVPKRFSGSRSGSDYSLTISSLESEDFVDYYCQQYANFPPTFGGGTKLEIK
B2: mu-128 (antibody, V domains shown)
VH: DVQLVESGGGLVQPGGSRKVSCAASGFTFSSFGMHWVRQAPEKGLEWVAYISRGSSTIYYADTVKGRFTISRDNPKNTLFLQMTSLRSEDTAMYYCARSGYGSSSYYFDYWGQGTTLTVSS
VL: ENVLTQSPAIMSASPREKVTMTCRASSSIRSSYLHWYQQKSGASPKLWIYSTSNLASGVPARFSGSGSGTSYSLTISSVEAEDAATYYCQQFSGYPLTFGGGTKLEIK
B3: mu-105 (antibody, V domains shown)
VH: EVQLQQSGPELVKPGASVKMSCKASGYTFTDYYMNWVKQSHGKSLEWIGYIYPNNGGTGYNQRFKGKATLTADKSSSTAYMELRSLTSEDSAVYYCARWGGTRLGYYAMDYWGQGTSVTVSS
VL: DIVMTQSQKFMSTSVGDRVSVTCKASQNVGTNVVWYQQKPGQSPKLLIYWASTRHTGVPDRFTGSGSGTDFTLTISNVQSEDLADYFCQQYSRYPYTFGGGTKLEIK
B4: mu-89 (antibody, V domains shown)
VH: EVQLVESGGDLVKPGGSLKLSCAASGFTFSSYGMSWVRQTPDKRLEWVATISSGGSYTYYPDSVKGRFTFSRDNAKNTLYLQMSSLKSEDTAMYYCVRQALRYHMDSWGQGTSVTVSS
VL: DIVMTQSQKFMSTSVGDRVSVTCKASQNVGTNVAWYQQKPGQSPKALIYSASYRYSGVPDRFTGSGSGTDFTLTISNVQSEDLADFFCQQYYSYPWTFGGGTKLEIK

In this assay the target is human GPRC5D protein (human) (UniProt Q9NZD1). Put plainly: FACS, subclone culture supernatant on NCI-H929 cells (medium alone: MFI 8242). (A flow cytometer gives signals particle by particle.)
Chain of human GPRC5D protein (human) (Q9NZD1 whole entry): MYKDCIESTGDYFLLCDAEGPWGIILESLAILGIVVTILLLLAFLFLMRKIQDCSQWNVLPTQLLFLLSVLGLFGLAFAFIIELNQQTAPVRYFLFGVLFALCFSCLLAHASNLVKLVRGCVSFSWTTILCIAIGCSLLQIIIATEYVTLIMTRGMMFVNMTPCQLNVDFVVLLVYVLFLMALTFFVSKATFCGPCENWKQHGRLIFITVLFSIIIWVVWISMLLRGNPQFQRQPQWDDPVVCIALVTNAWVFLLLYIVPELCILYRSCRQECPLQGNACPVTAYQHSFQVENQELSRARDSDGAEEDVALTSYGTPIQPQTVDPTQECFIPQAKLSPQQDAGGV
Turning to B1, the MFI is 12800.
B2 had an MFI of 15700.
In turn, B3 returned an MFI of 13200.
Then B4, with 11900.
